Experimental data published in publication PMC4414141, “The function of cux1 in oxidative dna damage repair is needed to prevent premature senescence of mouse embryo fibroblasts”.

Legend:
Settings in all cases: protein: recombinant; tags: N-terminal His; label: 5'-32P on top strand
[1] = target: T1, CUX1 CR3HD (UniProt P39880 1117-1303); experiment: EMSA; complex co-migrates with that of OGG1; EMSA: 50 nM bacterially purified protein, 60 ng poly(dI-dC); buffer, salt, pH and temperature by reference to earlier work (not in material)
T1 sequence: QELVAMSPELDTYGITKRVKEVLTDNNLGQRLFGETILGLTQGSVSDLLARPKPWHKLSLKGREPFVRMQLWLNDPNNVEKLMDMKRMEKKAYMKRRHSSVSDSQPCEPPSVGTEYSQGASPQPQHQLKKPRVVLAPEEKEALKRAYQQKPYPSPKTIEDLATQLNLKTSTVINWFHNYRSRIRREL

[2] = target: T2, CUX1 CR2CR3HD (UniProt P39880 934-1303); experiment: EMSA; EMSA: 50 nM bacterially purified protein, 60 ng poly(dI-dC); buffer, salt, pH and temperature by reference to earlier work (not in material)
T2 sequence: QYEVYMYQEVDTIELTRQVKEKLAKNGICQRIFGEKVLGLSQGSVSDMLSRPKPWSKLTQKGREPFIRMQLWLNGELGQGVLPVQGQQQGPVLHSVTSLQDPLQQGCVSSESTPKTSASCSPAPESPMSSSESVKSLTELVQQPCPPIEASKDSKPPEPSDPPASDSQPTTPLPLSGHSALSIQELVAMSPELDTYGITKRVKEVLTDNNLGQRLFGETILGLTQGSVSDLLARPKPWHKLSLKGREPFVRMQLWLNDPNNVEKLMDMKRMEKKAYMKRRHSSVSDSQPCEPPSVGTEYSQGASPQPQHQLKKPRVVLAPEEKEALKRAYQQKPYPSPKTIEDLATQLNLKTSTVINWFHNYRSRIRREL

[3] = target: T3, CUX1 CR1CR2 (UniProt P39880 542-1021); experiment: as above
T3 sequence: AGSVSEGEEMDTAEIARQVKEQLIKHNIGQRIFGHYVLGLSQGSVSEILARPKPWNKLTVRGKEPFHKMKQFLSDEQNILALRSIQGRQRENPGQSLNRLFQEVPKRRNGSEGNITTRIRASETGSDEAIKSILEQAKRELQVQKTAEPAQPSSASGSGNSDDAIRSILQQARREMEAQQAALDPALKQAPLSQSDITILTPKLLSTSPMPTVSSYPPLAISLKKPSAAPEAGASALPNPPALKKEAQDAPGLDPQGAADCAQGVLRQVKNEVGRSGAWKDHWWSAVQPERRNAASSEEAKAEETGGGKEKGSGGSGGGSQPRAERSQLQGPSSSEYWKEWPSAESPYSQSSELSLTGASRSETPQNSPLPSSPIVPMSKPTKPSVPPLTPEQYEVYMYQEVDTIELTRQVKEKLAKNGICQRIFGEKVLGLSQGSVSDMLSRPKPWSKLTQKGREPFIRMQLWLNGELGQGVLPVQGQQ

Measured: binding result

B1: Probe A, 8-oxoG (dsDNA)
DNA 1: CCGGTGCATGACACTGTGACCTATCCTCAGCG
DNA 2: CGCTGAGGATAGGTCACAGTGTCATGCACCGG
modifications: 8-oxoG at position X of top strand
binds: [1] | [2] | [3]
